Experimental data: article PMC10786891, “Massively parallel profiling of RNA-targeting CRISPR-Cas13d”

T1: EsCas13d, nuclease-dead (Eubacterium siraeum, UniProt B0MS50, R295A;H300A;R849A;H854A)
T1 sequence: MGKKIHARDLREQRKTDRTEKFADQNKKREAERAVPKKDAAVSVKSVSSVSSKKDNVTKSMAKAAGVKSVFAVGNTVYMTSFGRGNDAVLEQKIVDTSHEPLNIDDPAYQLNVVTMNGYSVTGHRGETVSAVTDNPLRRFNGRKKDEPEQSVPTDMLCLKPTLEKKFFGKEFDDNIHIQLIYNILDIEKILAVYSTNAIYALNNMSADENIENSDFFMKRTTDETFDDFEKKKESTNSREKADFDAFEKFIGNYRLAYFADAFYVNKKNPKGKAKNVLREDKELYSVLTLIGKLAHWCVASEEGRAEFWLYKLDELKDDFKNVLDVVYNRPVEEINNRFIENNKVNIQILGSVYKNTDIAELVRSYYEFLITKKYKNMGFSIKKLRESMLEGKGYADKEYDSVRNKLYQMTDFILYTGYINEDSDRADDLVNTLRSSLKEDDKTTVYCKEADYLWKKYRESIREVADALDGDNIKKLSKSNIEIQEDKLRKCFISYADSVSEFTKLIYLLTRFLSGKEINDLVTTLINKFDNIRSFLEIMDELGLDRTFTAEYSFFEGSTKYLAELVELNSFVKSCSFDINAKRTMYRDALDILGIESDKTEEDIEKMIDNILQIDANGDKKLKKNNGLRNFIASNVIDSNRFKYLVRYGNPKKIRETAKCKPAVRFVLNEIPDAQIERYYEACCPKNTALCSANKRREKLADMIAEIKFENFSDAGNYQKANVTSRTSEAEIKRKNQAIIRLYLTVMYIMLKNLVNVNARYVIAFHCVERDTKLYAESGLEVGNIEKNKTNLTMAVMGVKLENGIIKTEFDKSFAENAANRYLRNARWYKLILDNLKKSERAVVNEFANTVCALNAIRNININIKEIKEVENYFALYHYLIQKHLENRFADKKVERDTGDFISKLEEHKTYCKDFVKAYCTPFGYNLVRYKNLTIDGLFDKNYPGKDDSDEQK

B1: target 1 C4U,A20C (mixed)
RNA 1: CACCCGUGCAAAAAUGCAGGGGUCUAAAACUGAGCGGAUAACCUCUCUAUGG
RNA 2: GGGAAUGGAUCCACAUCUACGAAUUCGUACCCUAGAGAGGUUAUCCGUUCACCGAGAUCGGAAGAGCACACGU
B2: target 1 G12U,A20U (mixed)
RNA 1: CACCCGUGCAAAAAUGCAGGGGUCUAAAACUGAGCGGAUAACCUCUCUAUGG
RNA 2: GGGAAUGGAUCCACAUCUACGAAUUCGUACCUUAGAGAGUUUAUCCGCUCACCGAGAUCGGAAGAGCACACGU
B3: target 2 MT 5'PFS CUG 3'PFS UAC (mixed)
RNA 1: CACCCGUGCAAAAUUGCAGGGGUCUAAAACCUUCUCCAAAUUGUUUCAUCCU
RNA 2: GGGAAUGGAUCCACAUCUACGAAUUCCUGAGGAUGAAACAAUUUGGAGAAGUACAGAUCGGAAGAGCACACGU
B4: target 2 MT 5'PFS UAA 3'PFS CUG (mixed)
RNA 1: CACCCGUGCAAAAUUGCAGGGGUCUAAAACCUUCUCCAAAUUGUUUCAUCCU
RNA 2: GGGAAUGGAUCCACAUCUACGAAUUCUAAAGGAUGAAACAAUUUGGAGAAGCUGAGAUCGGAAGAGCACACGU
B5: target 2 MT 5'PFS AGG 3'PFS CUA (mixed)
RNA 1: CACCCGUGCAAAAUUGCAGGGGUCUAAAACCUUCUCCAAAUUGUUUCAUCCU
RNA 2: GGGAAUGGAUCCACAUCUACGAAUUCAGGAGGAUGAAACAAUUUGGAGAAGCUAAGAUCGGAAGAGCACACGU
B6: target 2 MT 5'PFS GCU 3'PFS ACG (mixed)
RNA 1: CACCCGUGCAAAAUUGCAGGGGUCUAAAACCUUCUCCAAAUUGUUUCAUCCU
RNA 2: GGGAAUGGAUCCACAUCUACGAAUUCGCUAGGAUGAAACAAUUUGGAGAAGACGAGAUCGGAAGAGCACACGU
B7: target 2 MT 5'PFS GCA 3'PFS AGG (mixed)
RNA 1: CACCCGUGCAAAAUUGCAGGGGUCUAAAACCUUCUCCAAAUUGUUUCAUCCU
RNA 2: GGGAAUGGAUCCACAUCUACGAAUUCGCAAGGAUGAAACAAUUUGGAGAAGAGGAGAUCGGAAGAGCACACGU
B8: target 2 MT 5'PFS UCU 3'PFS AUG (mixed)
RNA 1: CACCCGUGCAAAAUUGCAGGGGUCUAAAACCUUCUCCAAAUUGUUUCAUCCU
RNA 2: GGGAAUGGAUCCACAUCUACGAAUUCUCUAGGAUGAAACAAUUUGGAGAAGAUGAGAUCGGAAGAGCACACGU
B9: target 2 MT 5'PFS GCA 3'PFS AGU (mixed)
RNA 1: CACCCGUGCAAAAUUGCAGGGGUCUAAAACCUUCUCCAAAUUGUUUCAUCCU
RNA 2: GGGAAUGGAUCCACAUCUACGAAUUCGCAAGGAUGAAACAAUUUGGAGAAGAGUAGAUCGGAAGAGCACACGU
B10: target 2 MT 5'PFS UAA 3'PFS CUU (mixed)
RNA 1: CACCCGUGCAAAAUUGCAGGGGUCUAAAACCUUCUCCAAAUUGUUUCAUCCU
RNA 2: GGGAAUGGAUCCACAUCUACGAAUUCUAAAGGAUGAAACAAUUUGGAGAAGCUUAGAUCGGAAGAGCACACGU
B11: target 2 MT 5'PFS GCU 3'PFS ACU (mixed)
RNA 1: CACCCGUGCAAAAUUGCAGGGGUCUAAAACCUUCUCCAAAUUGUUUCAUCCU
RNA 2: GGGAAUGGAUCCACAUCUACGAAUUCGCUAGGAUGAAACAAUUUGGAGAAGACUAGAUCGGAAGAGCACACGU
B12: target 2 MT 5'PFS UCU 3'PFS AUC (mixed)
RNA 1: CACCCGUGCAAAAUUGCAGGGGUCUAAAACCUUCUCCAAAUUGUUUCAUCCU
RNA 2: GGGAAUGGAUCCACAUCUACGAAUUCUCUAGGAUGAAACAAUUUGGAGAAGAUCAGAUCGGAAGAGCACACGU
B13: target 2 MT 5'PFS AUU 3'PFS AUA (mixed)
RNA 1: CACCCGUGCAAAAUUGCAGGGGUCUAAAACCUUCUCCAAAUUGUUUCAUCCU
RNA 2: GGGAAUGGAUCCACAUCUACGAAUUCAUUAGGAUGAAACAAUUUGGAGAAGAUAAGAUCGGAAGAGCACACGU
B14: target 2 MT 5'PFS GCU 3'PFS ACA (mixed)
RNA 1: CACCCGUGCAAAAUUGCAGGGGUCUAAAACCUUCUCCAAAUUGUUUCAUCCU
RNA 2: GGGAAUGGAUCCACAUCUACGAAUUCGCUAGGAUGAAACAAUUUGGAGAAGACAAGAUCGGAAGAGCACACGU
B15: target 2 MT 5'PFS AAC 3'PFS CCG (mixed)
RNA 1: CACCCGUGCAAAAUUGCAGGGGUCUAAAACCUUCUCCAAAUUGUUUCAUCCU
RNA 2: GGGAAUGGAUCCACAUCUACGAAUUCAACAGGAUGAAACAAUUUGGAGAAGCCGAGAUCGGAAGAGCACACGU
B16: target 2 MT 5'PFS AGC 3'PFS UUA (mixed)
RNA 1: CACCCGUGCAAAAUUGCAGGGGUCUAAAACCUUCUCCAAAUUGUUUCAUCCU
RNA 2: GGGAAUGGAUCCACAUCUACGAAUUCAGCAGGAUGAAACAAUUUGGAGAAGUUAAGAUCGGAAGAGCACACGU
B17: target 2 MT 5'PFS GCU 3'PFS ACC (mixed)
RNA 1: CACCCGUGCAAAAUUGCAGGGGUCUAAAACCUUCUCCAAAUUGUUUCAUCCU
RNA 2: GGGAAUGGAUCCACAUCUACGAAUUCGCUAGGAUGAAACAAUUUGGAGAAGACCAGAUCGGAAGAGCACACGU
B18: target 2 MT 5'PFS AUA 3'PFS UCU (mixed)
RNA 1: CACCCGUGCAAAAUUGCAGGGGUCUAAAACCUUCUCCAAAUUGUUUCAUCCU
RNA 2: GGGAAUGGAUCCACAUCUACGAAUUCAUAAGGAUGAAACAAUUUGGAGAAGUCUAGAUCGGAAGAGCACACGU
B19: target 2 MT 5'PFS AAC 3'PFS CCA (mixed)
RNA 1: CACCCGUGCAAAAUUGCAGGGGUCUAAAACCUUCUCCAAAUUGUUUCAUCCU
RNA 2: GGGAAUGGAUCCACAUCUACGAAUUCAACAGGAUGAAACAAUUUGGAGAAGCCAAGAUCGGAAGAGCACACGU
B20: target 2 MT 5'PFS UUG 3'PFS UUU (mixed)
RNA 1: CACCCGUGCAAAAUUGCAGGGGUCUAAAACCUUCUCCAAAUUGUUUCAUCCU
RNA 2: GGGAAUGGAUCCACAUCUACGAAUUCUUGAGGAUGAAACAAUUUGGAGAAGUUUAGAUCGGAAGAGCACACGU
B21: target 2 MT 5'PFS UAU 3'PFS CAU (mixed)
RNA 1: CACCCGUGCAAAAUUGCAGGGGUCUAAAACCUUCUCCAAAUUGUUUCAUCCU
RNA 2: GGGAAUGGAUCCACAUCUACGAAUUCUAUAGGAUGAAACAAUUUGGAGAAGCAUAGAUCGGAAGAGCACACGU
B22: target 2 MT 5'PFS AUU 3'PFS AUC (mixed)
RNA 1: CACCCGUGCAAAAUUGCAGGGGUCUAAAACCUUCUCCAAAUUGUUUCAUCCU
RNA 2: GGGAAUGGAUCCACAUCUACGAAUUCAUUAGGAUGAAACAAUUUGGAGAAGAUCAGAUCGGAAGAGCACACGU
B23: target 2 MT 5'PFS CAU 3'PFS ACG (mixed)
RNA 1: CACCCGUGCAAAAUUGCAGGGGUCUAAAACCUUCUCCAAAUUGUUUCAUCCU
RNA 2: GGGAAUGGAUCCACAUCUACGAAUUCCAUAGGAUGAAACAAUUUGGAGAAGACGAGAUCGGAAGAGCACACGU
B24: target 2 MT 5'PFS AGC 3'PFS UUG (mixed)
RNA 1: CACCCGUGCAAAAUUGCAGGGGUCUAAAACCUUCUCCAAAUUGUUUCAUCCU
RNA 2: GGGAAUGGAUCCACAUCUACGAAUUCAGCAGGAUGAAACAAUUUGGAGAAGUUGAGAUCGGAAGAGCACACGU

What follows are binders tested against T1, EsCas13d, nuclease-dead (assay: crRNA (strand 1, pre-loaded); Mg2+; 40 mM Tris-HCl pH 7.5, 150 mM NaCl, 6 mM MgCl2, 1 mM DTT, 0.1% Tween-20, 0.2 mg/ml BSA; 25 C; 10 min per concentration, then washed). Settings: tags: His6-TwinStrep-SUMO cleaved; N-terminal SNAP kept (SNAP-Surface 488); label: 3' end held by stalled T7 RNA polymerase.

Point of comparison: B16, Kd 0.0109 ± 0.0024 µM. Against it:
- B1 — 8.3-fold higher, ~0.09 µM
- B2 — 2.5-fold higher, 0.0275 ± 0.0023 µM
- B3 — 3.9-fold lower, 0.00276 ± 0.00035 µM
- B4 — 1.8-fold lower, 0.0062 ± 0.0011 µM
- B5 — 1.6-fold lower, 0.0067 ± 0.0011 µM
- B6 — within error, 0.0146 ± 0.0014 µM
- B7 — within error, 0.0131 ± 0.0018 µM
- B8 — within error, 0.0083 ± 0.0015 µM
- B9 — 2.6-fold higher, 0.028 ± 0.01 µM
- B10 — 1.6-fold lower, 0.0069 ± 0.0015 µM
- B11 — 2.1-fold higher, 0.023 ± 0.004 µM
- B12 — within 1.5-fold, 0.0073 ± 0.001 µM
- B13 — 2.1-fold lower, 0.0053 ± 0.0004 µM
- B14 — within error, 0.015 ± 0.004 µM
- B15 — 1.8-fold lower, 0.0059 ± 0.0006 µM
- B17 — 2.8-fold higher, ~0.03 µM
- B18 — 3-fold higher, 0.033 ± 0.015 µM
- B19 — within error, 0.013 ± 0.004 µM
- B20 — 2.3-fold higher, 0.0255 ± 0.0033 µM
- B21 — 2.2-fold higher, 0.0241 ± 0.0027 µM
- B22 — within error, 0.0095 ± 0.001 µM
- B23 — within error, 0.0079 ± 0.0025 µM
- B24 — within error, 0.0106 ± 0.0014 µM
